Results on one molecule are retold here after paper PMC5711526.

This series concerns the target human alpha-thrombin (Homo sapiens, UniProt P00734;P00734 328-363;364-622). In words: native ESI-MS.

In the case of GGTTGGTGTGGTTGG (structured_DNA) [TBA (Bock thrombin binding aptamer, 15-mer)], the binding result was “binds”.
